Patent US20250186594A1

Experiments:
[1] = target: Fc fused human IL-18BP isoform a (IL-18BPa) (human) (UniProt O95998); test: SPR, Fc-IL-18BPa captured, 1:1 fit
[2] = target: His-tagged human IL-18BP (human) (UniProt O95998); test: AlphaLISA of free IL-18BP (signal at 615 nm) after incubation of His-tagged human IL-18BP with a dilution series of the IL-18 polypeptide
[3] = target: His-tagged human IL-18BP (human) (UniProt O95998); test: AlphaLISA of free IL-18BP

Sequence of Native IL-18 wild-type (SEQ ID NO: 1, native sequence) (Q14116 37-193): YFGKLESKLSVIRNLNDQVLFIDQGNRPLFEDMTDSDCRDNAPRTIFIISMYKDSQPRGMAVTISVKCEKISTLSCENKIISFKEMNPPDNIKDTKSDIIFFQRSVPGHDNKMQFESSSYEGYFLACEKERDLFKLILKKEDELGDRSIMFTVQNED
Sequence of Fc fused human IL-18BP isoform a (IL-18BPa) (human) (O95998 31-194): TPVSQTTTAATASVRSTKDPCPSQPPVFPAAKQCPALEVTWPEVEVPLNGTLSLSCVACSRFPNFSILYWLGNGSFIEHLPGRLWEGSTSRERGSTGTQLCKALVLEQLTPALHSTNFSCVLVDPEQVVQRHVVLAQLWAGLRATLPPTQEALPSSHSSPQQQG

Substance | Kd [1] | koff [1] | kon [1] | IC50 (read off the curve) [2] | Kd [3]
IL-18 variant SEQ ID NO: 30 (E6K, V11I, C38A, K53A, T63A, C76A, C127A) (from UniProt Q14116 37-193) (ligand) | 3.05 nM | 0.00345 s⁻¹ | 1.05e+06 M⁻¹ s⁻¹ | 8 nM | 24.6 nM
IL-18 variant SEQ ID NO: 57 with 30 kDa PEG (E6K, C38S, K53A, C68-30kDPEG) (from UniProt Q14116 37-193) (ligand) | 23 nM | 0.00397 s⁻¹ | 177000 M⁻¹ s⁻¹ |  | 42.5 nM
IL-18 variant SEQ ID NO: 59 (E6K, C38A, K53A) (from UniProt Q14116 37-193) (ligand) | 2.05 nM | 0.00301 s⁻¹ | 1.47e+06 M⁻¹ s⁻¹ |  | 36.4 nM
IL-18 variant SEQ ID NO: 59 with 30 kDa PEG (E6K, C38A, K53A, C68-30kDPEG) (from UniProt Q14116 37-193) (ligand) | 19.4 nM | 0.00355 s⁻¹ | 199000 M⁻¹ s⁻¹ |  | 75.2 nM
IL-18 variant SEQ ID NO: 60 (E6K, C38Q, K53A) (from UniProt Q14116 37-193) (ligand) | 1.7 nM | 0.00308 s⁻¹ | 1.87e+06 M⁻¹ s⁻¹ |  | 24.8 nM
IL-18 variant SEQ ID NO: 60 with 30 kDa PEG (E6K, C38Q, K53A, C68-30kPEG) (from UniProt Q14116 37-193) (ligand) | 22 nM | 0.00395 s⁻¹ | 193000 M⁻¹ s⁻¹ |  | 63.7 nM
IL-18 variant SEQ ID NO: 62 (E6K, C38A, K53A, C127A) (from UniProt Q14116 37-193) (ligand) | 1.96 nM | 0.00315 s⁻¹ | 1.61e+06 M⁻¹ s⁻¹ |  | 69.6 nM
IL-18 variant SEQ ID NO: 62 with 30 kDa PEG (E6K, C38A, K53A, C127A, C68-30kPEG) (from UniProt Q14116 37-193) (ligand) | 24 nM | 0.00342 s⁻¹ | 142000 M⁻¹ s⁻¹ |  | 29.3 nM
IL-18 variant SEQ ID NO: 63 (E6K, C38A, K53A, C76A, C127A) (from UniProt Q14116 37-193) (ligand) | 1.5 nM | 0.00424 s⁻¹ | 2.82e+06 M⁻¹ s⁻¹ |  | 20.3 nM
Native IL-18 wild-type (SEQ ID NO: 1, native sequence) (from UniProt Q14116 37-193) (ligand) | 0.246 nM | 0.00038 s⁻¹ | 1.28e+06 M⁻¹ s⁻¹ | 0.6 nM | 0.411 nM
